Measured values from the Immune Epitope Database (IEDB).

Experiments:
Assay in all cases: IEDB peptide-MHC binding, purified MHC/competitive/radioactivity; filed as Kd, often an IC50 or EC50 that approximates it; ≥ and ≤ were set here for values at or beyond the usual limits of such assays
HLA-A*02:02 = molecular target: HLA-A*02:02
HLA-A*02:03 = molecular target: HLA-A*02:03
HLA-A*02:06 = molecular target: HLA-A*02:06
HLA-A*03:01 = details: source organism: Vaccinia virus WR
HLA-A*11:01 = details: source organism: Vaccinia virus WR
HLA-A*31:01 = details: source organism: Vaccinia virus WR
HLA-A*33:01 = details: source organism: Vaccinia virus WR
HLA-A*68:01 = details: source organism: Vaccinia virus WR
[1] = source organism: SARS coronavirus Tor2
[2] = source organism: Vaccinia virus WR
[3] = source organism: Dengue virus 2 Jamaica/1409/1983
[4] = source organism: Lymphocytic choriomeningitis virus (strain Armstrong)
[5] = source organism: Mammarenavirus guanaritoense
[6] = source organism: Vaccinia virus Copenhagen
[7] = source organism: Mammarenavirus brazilense

Sequence | Kd (HLA-A*02:02; [2]) [nM] | Kd (HLA-A*02:03; [2]) [nM] | Kd (HLA-A*02:06; [2]) [nM] | also measured
ALVSGTATA |  |  |  | Kd (HLA-A*02:02; [1]): 4.63 nM; Kd (HLA-A*02:03; [1]): 8.1 nM; Kd (HLA-A*02:06; [1]): 269 nM
AQMGTLLIA |  |  |  | Kd (HLA-A*02:02; [1]): 64.5 nM; Kd (HLA-A*02:03; [1]): 1.55 nM; Kd (HLA-A*02:06; [1]): 0.442 nM
CTSEIQNVT | 188 | 5180 | 10200 | 
CVRLNNPVIL | 8560 | 5400 | ≥ 45100 | 
DLNRMPTDML | 1250 | 2190 | ≥ 47500 | 
DQDTMLFASA | 891 | 663 | 1720 | 
DQTHIKTIAV | 2170 | 390 | 1000 | 
DTEFINKFL | 7420 | ≥ 42700 | ≥ 77100 | 
DTMSIYIAVA | 19.5 | 23.7 | 1480 | 
EAKTHFSTT | ≥ 36600 | ≥ 25100 | ≥ 55300 | 
ETFPNVHEHI | 8020 | 6620 | ≥ 69800 | 
FLQISRVNDL | 5.18 | 67.1 | 583 | 
FMTATPPGAT |  |  |  | Kd (HLA-A*02:03; source organism: Dengue virus 4 Philippines/H241/1956): 29.4 nM
FTDCRTIDAI | 9440 | 12800 | 751 | 
FTHTTAFFNT | 17200 | 10200 | 51 | 
FVVNGHTCM | 6640 | 5900 | 1810 | 
GLKIEEIEKV | 14.9 | 6.61 | 198 | 
GLKSKTHAV |  |  |  | Kd (HLA-A*02:03; source organism: Homo sapiens): 1.58 nM
GMCCIITASI |  |  |  | Kd (HLA-A*02:03; [3]): 84.1 nM
HIGHHYIWI | 2550 | 899 | ≥ 25300 | 
IAIFNNRNLA | 3360 | 1480 | 890 | 
ILASFSAST |  |  |  | Kd (HLA-A*02:02; [1]): 1.62 nM; Kd (HLA-A*02:03; [1]): 5.27 nM; Kd (HLA-A*02:06; [1]): 457 nM
ITRLEVIGLT | 2210 | 219 | 967 | 
IVILFIMFM | 1860 | 1680 | 741 | 
KCMSAALKNL |  |  |  | Kd (HLA-A*02:02; [4]): 57.9 nM; Kd (HLA-A*02:03; [4]): 192 nM; Kd (HLA-A*02:06; [4]): 14000 nM
KLPTWLGAAI | 103 | 123 | 295 | 

Sequence | Kd (HLA-A*02:02; [2]) [nM] | Kd (HLA-A*02:03; [2]) [nM] | Kd (HLA-A*02:06; [2]) [nM] | also measured
KLTKDRKML | ≥ 24500 | ≥ 36400 | ≥ 77100 | 
KNAGYLVGR |  |  |  | Kd (HLA-A*02:02; [5]): ≥ 45600 nM; Kd (HLA-A*02:03; [5]): ≥ 78100 nM; Kd (HLA-A*02:06; [5]): ≥ 77000 nM
KQLGQVMLLI |  |  |  | Kd (HLA-A*02:06; [3]): 11 nM
LLDEPLSPDT | 8510 | 10100 | 7840 | 
LLTDTIESA | 16.6 | 10.5 | 5.88 | 
LLVTLAILTA |  |  |  | Kd (HLA-A*02:02; [1]): 4.39 nM; Kd (HLA-A*02:03; [1]): 42.9 nM; Kd (HLA-A*02:06; [1]): 32.2 nM
LMDCIIFES |  |  |  | Kd (HLA-A*02:02; [4]): 30.1 nM; Kd (HLA-A*02:03; [4]): 825 nM; Kd (HLA-A*02:06; [4]): 300 nM
LQQNNSFII | 11700 | 5170 | 423 | 
LSYSQTMLL |  |  |  | Kd (HLA-A*02:02; [4]): 2110 nM; Kd (HLA-A*02:03; [4]): 11300 nM; Kd (HLA-A*02:06; [4]): 3720 nM
LVFNSISARA | 1270 | 254 | 702 | 
LVSKHWELT | 12200 | 14900 | ≥ 77100 | 
MLDDFSAGA | 68.4 | 73.1 | 114 | 
NIKISLNEI | 1670 | 31 | 1500 | 
NLEELTTVFI | 418 | 6500 | 12300 | 
NLFDIPLLT |  |  |  | Kd (HLA-A*02:02; [6]): 135 nM; Kd (HLA-A*02:03; [6]): 36.3 nM; Kd (HLA-A*02:06; [6]): 1540 nM
PLNEAIMAV |  |  |  | Kd (HLA-A*02:03; [3]): 18.3 nM
QLVKDESIQL | 157 | 130 | 1810 | 
RARFIGGYIK |  |  |  | Kd (HLA-A*03:01): 629 nM; Kd (HLA-A*11:01): 16.8 nM; Kd (HLA-A*31:01): 59.4 nM; Kd (HLA-A*33:01): 11700 nM; Kd (HLA-A*68:01): 92.9 nM
RIVTVTTKDY |  |  |  | Kd (HLA-A*03:01): 427 nM; Kd (HLA-A*11:01): 600 nM; Kd (HLA-A*31:01): 18300 nM; Kd (HLA-A*33:01): ≥ 70000 nM; Kd (HLA-A*68:01): 1550 nM
RLAANAICSA |  |  |  | Kd (HLA-A*02:03; [3]): 127 nM
RLLKNMKQCT | ≥ 46800 | 3140 | 11900 | 
RMPTDMLKL | 950 | 106 | 678 | 
RSASGGVYL |  |  |  | Kd (HLA-A*02:02; [7]): 278 nM; Kd (HLA-A*02:03; [7]): 14500 nM; Kd (HLA-A*02:06; [7]): 13600 nM
RSTIFDIVSK |  |  |  | Kd (HLA-A*03:01): 81.3 nM; Kd (HLA-A*11:01): 1.97 nM; Kd (HLA-A*31:01): 222 nM; Kd (HLA-A*33:01): 6500 nM; Kd (HLA-A*68:01): 79.2 nM
RTFNEDLFR |  |  |  | Kd (HLA-A*03:01): 73.5 nM; Kd (HLA-A*11:01): 15.1 nM; Kd (HLA-A*31:01): 17.6 nM; Kd (HLA-A*33:01): 1570 nM; Kd (HLA-A*68:01): 22.3 nM
RTRLYDYFTR |  |  |  | Kd (HLA-A*03:01): 6060 nM; Kd (HLA-A*11:01): 991 nM; Kd (HLA-A*31:01): 0.7 nM; Kd (HLA-A*33:01): 1630 nM; Kd (HLA-A*68:01): 1450 nM
